Measurements from publication PMC3181075.
pKd: −log10 of the molar value. Where two headings read alike, the source gives them in different places.

How the values were obtained:
[1] = target: human carbonic anhydrase XII, catalytic domain (human)
[2] = target: human carbonic anhydrase XII, catalytic domain (human); test: other fluorescence titration

Question: With polylysine (peptide) as the substance, how does the pKd [1] read?
Answer: The pKd was 5.48.

Question: What about the pKd [2] of the same substance?
Answer: The pKd was 5.22.
